From publication PMC11310195
“And” between values parts separate entries of the source, which are not always exact repeats. Identical values can stand only once.

Columns and labels:
[1] = target: fluorescein-labelled Pdcd4 N-terminal domain (residues 1-156) (human) (UniProt Q53EL6); assay: fluorescence polarisation; fluorescence anisotropy binding assay: 20 nM FL-Pdcd4-NTD, 40S titrated, with or without eIFs (1 uM eIFs 1, 1A, 5, 550 nM eIF2-TC and eIF3); 20 mM Tris-acetate pH 7.5, 70 mM KCl, 2 mM MgCl2, 0.1 mM spermidine, 1 mM DTT, 10% glycerol, 0.1 mg/ml BSA, 0.5 mM ATP-Mg; 37 C 10 min, then over 20 min at room temperature; fraction bound fitted with a quadratic equation
[2] = target: 40S small ribosomal subunit (salt-washed) (human) (UniProt P23396); assay: fluorescence polarisation; anisotropy competition: 20 nM FL-Pdcd4-NTD + 50 nM 40S competed off by unlabeled Pdcd4 or its variants; 37 °C 10 min, then over 20 min at room temperature; buffer of the native gel assay
[3] = target: 40S small ribosomal subunit (salt-washed) (human) (UniProt P23396); assay: fluorescence polarisation; fluorescence anisotropy competition assay in solution: 20 nM FL-Pdcd4-NTD + 50 nM 40S competed off by 0-1000 nM unlabeled Pdcd4 or its variants; Kd of the labeled NTD set to 5 nM; same buffer as the native gel assay; 10 min at 37 C, then over 20 min at room temperature
[4] = target: 43S pre-initiation complex (40S + eIFs 1, 1A, 5, 3j, eIF2-TC and eIF3) (human) (UniProt P23396); assay: fluorescence polarisation; anisotropy binding: 20 nM FL-Pdcd4-NTD with various amounts of 40S, in the absence or presence of 43S components (1 μM eIFs 1, 1A, 5, 550 nM eIF2-TC and eIF3); buffer of the native gel assay
[5] = target: 43S pre-initiation complex (40S + eIFs 1, 1A, 5, 3j, eIF2-TC and eIF3) (human) (UniProt P23396); assay: native gel or EMSA; 100 nM fluorescein-labeled Pdcd4 with 250 nM 40S, 43S or 48S; 37 °C 10 min; 20 mM Tris-acetate pH 7.5, 70 mM KCl, 2 mM MgCl2, 0.1 mM spermidine, 1 mM DTT, 10% glycerol, 0.1 mg/ml BSA, 0.5 mM ATP-Mg; 1% agarose gel in THEM buffer, 4 °C
[6] = target: 40S small ribosomal subunit (salt-washed) (human) (UniProt P23396); assay: fluorescence polarisation; anisotropy binding: 20 nM FL-Pdcd4-NTD with various amounts of 40S in the presence of saturating eIF1 and eIF1A

Substance	Kd [1]	Ki [3]	also measured
43S pre-initiation complex (40S with eIF1, eIF1A, eIF5, eIF2 ternary complex and eIF3) (from UniProt P23396 1-243; P41567 1-113; P47813 1-144; P55010 1-431; P55884 158-814; O75821 1-320; Q13347 1-325; O75822 1-258)	3000 nM		
Pdcd4 (programmed cell death 4), wild type, residues 1-469 (from UniProt Q53EL6 1-469) (natural protein)			Ki [2]: 23 nM
Pdcd4 V123A/W124A (from UniProt Q53EL6 1-469) (natural protein)		864 nM and 791 nM and 828 nM	
fluorescein-labeled Pdcd4-NTD (FL-Pdcd4-NTD, residues 1-156) (from UniProt Q53EL6 1-156) (domain or fragment)			fold reduction in affinity (against the 40S alone) [4]: > 100 fold; percent binding compared to the 40S lane [5]: < 20%; fold reduction in affinity (against the 40S alone) [6]: > 10 fold
fluorescently modified recombinant Pdcd4 (FL-Pdcd4), full length (from UniProt Q53EL6 1-469) (natural protein)			percent binding compared to the 40S lane [5]: < 20%
human 40S small ribosomal subunit (from UniProt P23396 1-243) (complex)	5 nM		
wild-type Pdcd4 (residues 1-469), unlabeled (from UniProt Q53EL6 1-469) (natural protein)		24.7 nM and 21 nM and 23.3 nM	

Further lines, with some results ahead:

Kd [1]	Ki [3]	Substance	also measured
71 nM		40S subunit with saturating eIF1 and eIF1A (from UniProt P23396 1-243; P41567 1-113; P47813 1-144) (complex)	
	1600 nM and 1380 nM and 1490 nM	Pdcd4 K114A/K115A (from UniProt Q53EL6 1-469) (natural protein)	
	21.2 nM and 20.3 nM and 20.1 nM	Pdcd4-NTD (residues 1-156), unlabeled (from UniProt Q53EL6 1-156) (domain or fragment)	Ki [2]: 21 nM
